Assay results as given in article PMC3944691, “Crystallization and preliminary X-ray diffraction analysis of the amidase domain of allophanate hydrolase from Pseudomonas sp. strain ADP” (Acta Crystallographica. Section F, Structural Biology …, 2014).

B1: C-terminally truncated AtzF (AtzF467), first 467 amino acids of AtzF, N-terminally histidine-tagged (domain or fragment, Pseudomonas sp. strain ADP)
chain: MNDRAPHPERSGRVTPDHLTDLASYQAAYAAGTDAADVISDLYARIKEDGENPIWISLLPLESALAMLADAQQRKDKGEALPLFGIPFGVKDNIDVAGLPTTAGCTGFARTPRQHAFVVQRLVDAGAIPIGKTNLDQFATGLNGTRTPFGIPRCVFNENYVSGGSSSGSAVAVANGTVPFSLGTDTAGSGRIPAAFNNLVGLKPTKGLFSGSGLVPAARSLDCISVLAHTVDDALAVARVAAGYDADDAFSRKAGAAALTEKSWPRRFNFGVPAAEHRQFFGDAEAEALFNKAVRKLEEMGGTCISFDYTPFRQAAELLYAGPWVAERLAAIESLADEHPEVLHPVVRDIILSAKRMSAVDTFNGIYRLADLVRAAESTWEKIDVMLLPTAPTIYTVEDMLADPVRLNSNLGFYTNFVNLMDLSAIAVPAGFRTNGLPFGVTFIGRAFEDGAIASLGKAFVEHDLAK
notes: Allophanate hydrolase AtzF, Pseudomonas sp. strain ADP, first 467 amino acids (ends at Lys467), amidase domain; also called amidase domain of allophanate hydrolase; source: E. coli BL21 (λDE3), purified (Ni-NTA, Superdex 200 size exclusion); not shown: His6, N-terminal, kept

Assays:
[1] = biological target: Allophanate hydrolase (AtzF) from Pseudomonas sp. strain ADP, His-tagged full-length (Pseudomonas sp. strain ADP); assay: SEC; purified full-length AtzF on Superdex 200 prep-grade, 50 mM HEPES, 100 mM NaCl pH 7.5; oligomeric state from apparent size (~360 kDa)
[2] = biological target: the molecule itself; assay: SEC; purified AtzF467 on Superdex 200 prep-grade, 50 mM Tris, 100 mM NaCl pH 7.5; oligomeric state from apparent size (~110 kDa); data not shown

Molecule | stoichiometry N [1] | stoichiometry N [2]
Allophanate hydrolase (AtzF) from Pseudomonas sp. strain ADP, His-tagged full-length (enzyme) | 6 | –
B1 | – | 2
